Publication PMC6823245, “Positive Modulation of Angiotensin II Type 1 Receptor–Mediated Signaling by LVV–Hemorphin-7” (Frontiers in Pharmacology, 2019)

Key:
[1] = target: T1, AT1R (AT1R-Rluc/Venus-Gαq coupling) (Homo sapiens, UniProt P30556); test: BRET between AT1R-Rluc and Venus-Gαq (dose-response / 30 min endpoint) in HEK293 cells; assay type: cell-based; parameters: expressed in transfected cells; host or cells: HEK293, transient transfection (Lipofectamine 2000)
T1 sequence (P30556 1-359): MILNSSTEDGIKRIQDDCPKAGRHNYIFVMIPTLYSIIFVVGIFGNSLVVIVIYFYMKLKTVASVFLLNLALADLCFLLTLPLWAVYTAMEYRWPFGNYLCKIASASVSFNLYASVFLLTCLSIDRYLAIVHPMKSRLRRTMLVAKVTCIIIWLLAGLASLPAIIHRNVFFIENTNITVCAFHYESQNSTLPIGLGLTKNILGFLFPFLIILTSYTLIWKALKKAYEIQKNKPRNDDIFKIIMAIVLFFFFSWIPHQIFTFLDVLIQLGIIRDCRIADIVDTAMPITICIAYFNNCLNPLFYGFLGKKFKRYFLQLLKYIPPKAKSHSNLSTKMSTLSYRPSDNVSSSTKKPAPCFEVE
Description: All assays were carried out 48 h posttransfection.
BRET technology was used for dose–response analysis as previously described ([Ayoub et al., 2015]; [Ayoub, 2016]; [Ayoub et al., 2016]). […] Following treatment, 10 µl of coelenterazine h (Promega) in PBS was added to a final concentration of 5 µM, and BRET measurements were carried out using the Tristar 2 multilabel plate reader (Berthold, Germany) allowing sequential measurements of light emission at 480 and 540 nm.

AT1R (AT1R-WT) = target: T2, AT1R (AT1R-WT) (Homo sapiens, UniProt P30556); settings: 10 µM irbesartan 15 min, then 5 nM AngII ± 10 µM LVV–hemorphin-7, 30 min, 37°C (Figure 5D)
T2 sequence (P30556 1-359): T1 sequence (P30556 1-359)
Description: (§1) HEK293 cells were maintained at 37°C, 5% CO2 in complete medium (Dulbecco modified Eagle medium (DMEM) containing 0.3 mg/ml glutamine, 100 IU/ml penicillin, and 100 µg/ml streptomycin) supplemented with 10% fetal calf serum (GIBCO BRL, Carlsbad, CA, USA). Transient transfections for BRET were carried out in 96-well plates and IP1 and ERK1/2 assays in six-well plates using Lipofectamine 2000 (Invitrogen). […] The plasmid solution was then mixed with 25 µl of serum-free DMEM containing 0.5 µl of Lipofectamine 2000 and incubated for 20 min at room temperature. Cells (10^5 in 150 µl/well) resuspended in DMEM supplemented with 10% fetal calf serum (FCS) were then incubated with the final DNA-Lipofectamine 2000 mix (50 µl/well) and seeded in 96-well plates. All assays were carried out 48 h posttransfection.
Measurement of IP1 accumulation was performed in HEK293 cells expressing either AT1R-Rluc with Venus-Gαq like for BRET assays or untagged AT1R (AT1R-WT) alone using the IP-One Tb kit (Cisbio Bioassays, France) according to manufacturer’s instructions. […] The cells were then lysed by adding the supplied assay reagents, and the assay was incubated for 1 h at room temperature. Fluorescence emission was measured at 620 and 665 nm, 50 µs after excitation at 340 nm using the Tristar 2 multilabel plate reader (Berthold, Germany). […]

[2] = target: T1, AT1R (AT1R-Rluc/Venus-Gαq coupling); test: Real-time BRET kinetics, AT1R-Rluc and Venus-Gαq in HEK293 cells; settings: 10 µM alone, sequential protocol, after 35 min (Figure 3C)
Description: as §1
For the real-time BRET kinetics, different protocols were used. Cells were first washed with 50 µl/well of PBS and resuspended in 40 µl/well of PBS containing coelenterazine h (5 µM), and BRET signals were measured in real time for ∼5 min to determine the baseline.
All kinetic and the sigmoidal dose–response curves were fitted to appropriate nonlinear regression equations using GraphPad Prism software (San Diego, CA, USA). Statistical analyses were performed with two-way ANOVA and Tukey multiple-comparisons test to determine statistical significance between the different conditions.

[3] = among hemorphin peptides; ref not attached to the sentence (next sentence: Karelin et al., 1994; Moeller et al., 1997); cited from earlier work
Source text: Hemorphins are endogenous hemoglobin-derived peptides that were initially reported to have opiate-like activity. They are normally released from hemoglobin beta-chain during physiological or pathophysiological conditions. These peptides are 4 to 10 amino acids long and share a common Tyr-Pro-Trp-Thr tetrapeptide core (YPWT or hemorphin-4) ([Liebmann et al., 1989]; [Zhao et al., 1995]; [Ivanov et al., 1997]; [Nyberg et al., 1997]). A number of different hemorphin peptides have been identified including hemorphin-4, hemorphin-7, and LVV–hemorphin-4, -6, and -7 ([Brantl et al., 1986]; [Piot et al ...

AT1R = settings: ref Li et al., 2018, cited from earlier work
Source text: Our seminal finding is of significant importance to hemorphin and GPCR pharmacology and their implication in human physiology. Indeed, in addition to hemorphin’s effect on opioid receptors ([Brantl et al., 1986]; [Davis et al., 1989]; [Liebmann et al., 1989]; [Glämsta et al., 1992]; [Yukhananov et al., 1994]; [Nyberg et al., 1997]; [Szikra et al., 2001]; [Cheng et al., 2012]), we report yet another GPCR member (AT1R) that is a target of hemorphins with the plausible implication in the physiology and pathophysiology of vascular and renal systems. The action of LVV–hemorphin-7 on AT1R is consist ...

[4] = target: untagged AT1R (AT1R-WT) (human) (UniProt P30556)
[5] = target: AT1R-RlucII (angiotensin II type 1 receptor fused to Renilla luciferase) (human) (UniProt P30556)
[6] = target: AT1R-RlucII (angiotensin II type 1 receptor fused to Renilla luciferase) (human) (UniProt P30556); remark: listed apart in the source
[7] = target: AT1R-RlucII (angiotensin II type 1 receptor fused to Renilla luciferase) (human) (UniProt P30556); remark: listed apart in the source
[8] = target: AT1R-RlucII (angiotensin II type 1 receptor fused to Renilla luciferase) (human) (UniProt P30556); remark: listed apart in the source

CCCCC1=NC2(CCCC2)C(=O)N1Cc1ccc(-c2ccccc2-c2nnn[nH]2)cc1 [irbesartan]
inhibition of AngII-mediated BRET signals and of their potentiation by LVV–hemorphin-7 ([1]; 10 µM irbesartan 15 min, then 10 nM AngII ± 10 µM LVV–hemorphin-7, 30 min, 37°C (Figure 4A), n = 3): full inhibition | inhibition of AngII-mediated IP1 production and its potentiation by LVV–hemorphin-7 (AT1R (AT1R-WT)): completely abolished

CC(C)C[C@H](N)C(=O)N[C@H](C(=O)N[C@H](C(=O)N[C@@H](Cc1ccc(O)cc1)C(=O)N1CCC[C@H]1C(=O)N[C@@H](Cc1c[nH]c2ccccc12)C(=O)N[C@H](C(=O)N[C@@H](CCC(N)=O)C(=O)N[C@@H](CCCNC(=N)N)C(=O)N[C@@H](Cc1ccccc1)C(=O)O)[C@@H](C)O)C(C)C)C(C)C [LVV–hemorphin-7]
BRET increase, LVV–hemorphin-7 alone [2]: ~10% | stability [3]: most stable form | EC50 of potentiation of AngII-mediated BRET (in words) ([1]; 15 min preincubation, then 10 nM AngII 20 min (Figure 2E)): micromolar range

NC(CCS)C(=O)O (centres unmarked) [homocysteine]
binding site on AT1R (AT1R; binding experiments): binding of homocysteine to the orthosteric binding site of AT1R | positive allosteric modulation of AT1R (AT1R): PAM of AT1R

B1: LVV–hemorphin-7 (peptide)
peptide: LVVYPWTQRF
ERK1/2 phosphorylation (folds over untreated cells), cells expressing AT1R-WT, 10 µM LVV–hemorphin-7 alone, 5 min [4]: 6.74 folds | ERK1/2 phosphorylation (folds over untreated cells), cells expressing AT1R-WT, cotreatment with AngII and LVV–hemorphin-7 [4]: 12.8 folds | Log EC50 of LVV–hemorphin-7 for potentiation of the BRET increase between AT1R-Rluc and Venus-Gαq induced by 10 nM AngII (log (concentration unit not given)) [5]: -5.41 | Log EC50 of LVV–hemorphin-7 for potentiation of the BRET increase between AT1R-Rluc and yPET–β-arrestin 2 induced by 10 nM AngII (log (concentration unit not given)) [5]: -5.48 | E max (%) of AngII with LVV–hemorphin-7, BRET dose–response, AT1R-Rluc + Venus-Gαq; AngII without LVV–hemorphin-7 taken as 100% [6]: 109% | E max (%) of AngII with LVV–hemorphin-7, BRET dose–response, AT1R-Rluc + yPET–β-arrestin 2; AngII without LVV–hemorphin-7 taken as 100% [6]: 104% | E max (%) of AngII with LVV–hemorphin-7, BRET kinetics 1 (Figures 3A, B), AT1R-Rluc + Venus-Gαq; 10 nM AngII alone taken as 100% [6]: 263% | E max (%) of AngII with LVV–hemorphin-7, BRET kinetics 1 (Figures 3A, B), AT1R-Rluc + yPET–β-arrestin 2; 10 nM AngII alone taken as 100% [6]: 240% | E max (%) of AngII with LVV–hemorphin-7, BRET kinetics 2 (Figures 3C, D), AT1R-Rluc + Venus-Gαq; 10 nM AngII alone taken as 100% [6]: 171% | E max (%) of AngII with LVV–hemorphin-7, BRET kinetics 2 (Figures 3C, D), AT1R-Rluc + yPET–β-arrestin 2; 10 nM AngII alone taken as 100% [6]: 200% | BRET increase in sequential real-time kinetics (AT1R-Rluc with Venus-Gαq or yPET–β-arrestin 2), 10 µM LVV–hemorphin-7 alone, after 35 min [7]: 10% | ERK1/2 phosphorylation (folds over untreated cells), cells coexpressing AT1R-Rluc and Venus-Gαq, cotreatment with 10 nM AngII and 10 µM LVV–hemorphin-7 for 5 min [8]: 6.71 folds | ERK1/2 phosphorylation (folds over untreated cells), cells coexpressing AT1R-Rluc and Venus-Gαq, pretreatment with LVV–hemorphin-7 for 15 min followed by AngII for 5 min [8]: 6.7 folds
